In article PMC4794675 (Journal of Virology, 2016):

What was measured:
[1] = molecular target: T1, full-length (FL) E2 protein (Hepatitis C virus; strain of this …); test: ELISA; conditions: one partner purified
T1 construct: source: HEK293T, transfected, in clarified lysate

[2] = molecular target: T2, E1E2 heterodimer (E1E2 glycoprotein) (Hepatitis C virus; strain of this …); test: ELISA; conditions: one partner purified
T2 construct: source: HEK293T, transfected, in clarified lysate

[3] = molecular target: T3, sE2 expressed in mammalian cells (HEK293T lysate) (Hepatitis C virus; strain of this …); test: ELISA; conditions: one partner purified
T3 construct: also called mammalian cell-expressed sE2; source: HEK293T, transfected, in clarified lysate

[4] = molecular target: T4, Soluble E2 (sE2), amino acids 384 to 661 of HCV genotype 1a strain H77 (Hepatitis C virus genotype 1a, H77, UniProt P27958); test: SPR; Biacore 3000, sE2 immobilised on CM5 by amine coupling; MAbs or Fabs injected; HBS pH 7.2, 25°C, 20 μl/min; 1:1 Langmuir fit; conditions: both partners purified
T4 construct: source: High Five insect cells, recombinant baculovirus, secreted, purified (Ni-nitrilotriacetic acid chromatography)

[5] = molecular target: T5, BSA2 (glutaraldehyde-self-conjugated BSA) (Bos taurus, UniProt P02769); test: ELISA; conditions: both partners purified
T5 construct: bovine serum albumin; also called BSA2 control; source: BSA self-conjugated with 0.2% glutaraldehyde, dialysed
T5 sequence (P02769 25-607): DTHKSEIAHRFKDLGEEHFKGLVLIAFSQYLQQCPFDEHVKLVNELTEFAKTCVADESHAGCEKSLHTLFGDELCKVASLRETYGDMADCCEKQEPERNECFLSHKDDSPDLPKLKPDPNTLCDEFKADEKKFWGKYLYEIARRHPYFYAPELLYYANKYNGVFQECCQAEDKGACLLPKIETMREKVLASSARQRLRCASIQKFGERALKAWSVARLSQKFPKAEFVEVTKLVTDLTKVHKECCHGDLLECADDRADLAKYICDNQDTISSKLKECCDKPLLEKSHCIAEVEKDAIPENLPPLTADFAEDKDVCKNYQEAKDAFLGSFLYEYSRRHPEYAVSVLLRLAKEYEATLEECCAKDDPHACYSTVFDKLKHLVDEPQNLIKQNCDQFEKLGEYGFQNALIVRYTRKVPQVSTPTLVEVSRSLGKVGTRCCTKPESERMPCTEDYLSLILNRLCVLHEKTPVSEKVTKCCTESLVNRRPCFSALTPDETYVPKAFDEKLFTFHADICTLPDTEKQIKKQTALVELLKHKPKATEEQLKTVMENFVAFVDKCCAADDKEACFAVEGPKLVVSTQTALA

T4 sequence (P27958 384-661): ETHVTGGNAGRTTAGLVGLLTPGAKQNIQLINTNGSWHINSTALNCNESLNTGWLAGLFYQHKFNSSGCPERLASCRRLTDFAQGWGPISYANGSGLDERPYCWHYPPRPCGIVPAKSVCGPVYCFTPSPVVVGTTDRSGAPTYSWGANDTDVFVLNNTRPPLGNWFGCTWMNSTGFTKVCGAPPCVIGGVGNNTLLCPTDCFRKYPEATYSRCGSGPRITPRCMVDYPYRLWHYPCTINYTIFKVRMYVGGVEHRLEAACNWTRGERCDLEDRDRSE
T1 sequence (P27958 384-746): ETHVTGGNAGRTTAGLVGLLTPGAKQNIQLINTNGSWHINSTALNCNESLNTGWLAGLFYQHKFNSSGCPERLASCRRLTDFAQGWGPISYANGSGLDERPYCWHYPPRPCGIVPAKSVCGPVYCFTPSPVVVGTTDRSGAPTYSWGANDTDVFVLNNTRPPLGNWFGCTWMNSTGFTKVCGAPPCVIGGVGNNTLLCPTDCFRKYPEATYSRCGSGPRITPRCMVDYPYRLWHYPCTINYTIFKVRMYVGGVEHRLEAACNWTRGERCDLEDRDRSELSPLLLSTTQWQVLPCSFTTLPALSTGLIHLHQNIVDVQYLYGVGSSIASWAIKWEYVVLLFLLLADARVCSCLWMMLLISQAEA

Row | Binder | binding result [1] | binding result [2] | binding result [3] | Kd [4] [µM] | koff [4] [s⁻¹] | kon [4] [M⁻¹ s⁻¹] | binding result [5]
1 | MAb AP33 (broadly neutralizing mouse monoclonal antibody) (antibody, V domains shown) VH: EVQLQESGPSLVKPSQTLSLTCSVTGDSITSGYWNWIRKFPGNKLEYMGYISYSGSTYYNLSLRSRISITRDTSKNQYYLQLNSVTTEDTATYYCALITTTTYAMDYWGQGTSVTVSS VL: NIVLTQSPVSLAVSLGQRATISCRASESVDGYGNSFLHWFQQKPGQPPKLLIYLASNLNSGVPARFSGSGSRTDFTLTIDPVEADDAATYYCQQNNVDPWTFGGGTKLEIK | binds | binds | binds | 0.000142 | 6.4e-05 | 649000 | 
2 | Fab fragment of AP33 (Fab, V domains shown, source: papain digestion of purified IgG; Fc removed on protein G, gel filtration) VH: EVQLQESGPSLVKPSQTLSLTCSVTGDSITSGYWNWIRKFPGNKLEYMGYISYSGSTYYNLSLRSRISITRDTSKNQYYLQLNSVTTEDTATYYCALITTTTYAMDYWGQGTSVTVSS VL: NIVLTQSPVSLAVSLGQRATISCRASESVDGYGNSFLHWFQQKPGQPPKLLIYLASNLNSGVPARFSGSGSRTDFTLTIDPVEADDAATYYCQQNNVDPWTFGGGTKLEIK |  |  |  | 0.00072 | 0.000147 | 230000 | 
3 | MAb C2 (mouse monoclonal antibody against C-epitope I) (antibody, V domains shown, source: also used as hybridoma supernatant) VH: EVQLQQPGAELVRPGGSVKLSCKASGYSFTTYWMNWVKQRPGQGLEWIGMIQPSDSETRLNQKFKDKATLTLDRSSSTVYMQLSSPTSDDSAVYYCARTGRGDAWLTYWGQGTSVTVSS VL: NIVLTQSPVSLAVSLGQRATISCRASKSVSTSGYSYMHWYQQKPGQPPRLLLYLGSNLESGVPARFSGSGSGTDFTLNIHPVEEEDAATYYCQHIRELTRSFGGGTKLEIK |  |  |  | 0.0498 | 0.000848 | 18800 | no binding
4 | Fab fragment of the C2 antibody (Fab, V domains shown, source: papain digestion of purified IgG; Fc removed on protein G, gel filtration) VH: EVQLQQPGAELVRPGGSVKLSCKASGYSFTTYWMNWVKQRPGQGLEWIGMIQPSDSETRLNQKFKDKATLTLDRSSSTVYMQLSSPTSDDSAVYYCARTGRGDAWLTYWGQGTSVTVSS VL: NIVLTQSPVSLAVSLGQRATISCRASKSVSTSGYSYMHWYQQKPGQPPRLLLYLGSNLESGVPARFSGSGSGTDFTLNIHPVEEEDAATYYCQHIRELTRSFGGGTKLEIK |  |  |  | 0.301 | 0.00463 | 12800 | 
